Measurements as given in patent US20100285988.

Legend:
[1] = system: βCTFΔ (Aβ17-23 deleted form of βCTF)
[2] = system: βCTF-FLAG (recombinant β-secretase cleaved APP C-terminal fragment)
[3] = system: Aβ17-23 (LVFFAED) peptide

γ-secretase (human; HeLa cell membrane / solubilized HeLa membrane; endogenous in HEK293 cells)
Vmax [1]: Vmax values are 16±1 and 215±24 min^-1 µg^-1 for βCTF and βCTFΔ, respectively
Vmax/Km or kcat/Km relative to βCTF [1]: is 42-fold greater than for the βCTF substrate
apparent Km (Aβ40 production, ECL) [1]: 0.26±0.09 µM for βCTFA
Vmax [2]: Vmax values are 16±1 and 215±24 min^-1 µg^-1 for βCTF and βCTFΔ, respectively
apparent Km (Aβ40 production, ECL) [2]: the apparent Km is 0.47±0.09 µM for βCTF
rate of γ-secretase hydrolysis (X40 product, ECL) relative to αCTF-FLAG [2]: The rate of γ-secretase hydrolysis of βCTF-FLAG is 12-fold greater than for hydrolysis of αCTF-FLAG
potency on Notch cleavage relative to APP-derived substrates [3]: the potency of this peptide is 6-fold less potent in the proteolytic cleavage of Notch by γ-secretase than that of APP-derived substrates
